The target in one assay is T1, FtsZ-D86N (E. coli, UniProt P0A9A6 1-383, D86N).
T1 construct: FtsZ, E. coli, untagged, with D86N; pSEB160 derivative
T1 sequence (looked up): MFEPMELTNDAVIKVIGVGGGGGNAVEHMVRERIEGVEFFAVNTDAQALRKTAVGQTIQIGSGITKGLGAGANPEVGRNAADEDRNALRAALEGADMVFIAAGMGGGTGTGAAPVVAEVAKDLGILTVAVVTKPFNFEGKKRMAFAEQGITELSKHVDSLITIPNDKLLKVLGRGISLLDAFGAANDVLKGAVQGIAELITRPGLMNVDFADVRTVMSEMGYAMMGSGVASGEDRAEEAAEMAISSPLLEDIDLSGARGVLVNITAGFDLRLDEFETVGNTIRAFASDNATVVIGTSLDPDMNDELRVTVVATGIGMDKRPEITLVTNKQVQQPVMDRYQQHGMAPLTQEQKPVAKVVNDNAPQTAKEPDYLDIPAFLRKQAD
Nature of the assay: BLI; biotinylated SBS17-30mer (50 nM) on streptavidin tips, loaded with 4 µM SlmA or SlmA mutant; FtsZ or variants (4 µM, preincubated with 1 mM GDP) or peptides (up to 320 µM) in solution; 1× Pol buffer, room temperature. The note with it: both partners purified. A general note: Biolayer interferometry detects binding as a change in optical thickness at a sensor tip.

Another assay addresses T2, FtsZ-K190V (E. coli, UniProt P0A9A6 1-383, K190V).
T2 construct: FtsZ, E. coli, untagged, with K190V; pSEB160 derivative
T2 sequence (looked up): T1 sequence (looked up) with N86D, K190V
The experiment in a line: co-sedimentation; stable FtsZ polymers formed with GMPCPP (1 mM); proteins 5 µM, SBS17-30mer DNA 2 µM; Pol buffer (50 mM HEPES-NaOH pH 8.0, 200 mM KCl, 10 mM MgCl2); 80,000 rpm 15 min 25°C; supernatant and pellet by SDS-PAGE. Conditions: both partners purified.

Changes are numbered by the printed parent chain.

B1: 6×His-SlmA (natural protein, E. coli, UniProt P0C093 1-198, looked up)
chain: MAEKQTAKRNRREEILQSLALMLESSDGSQRITTAKLAASVGVSEAALYRHFPSKTRMFDSLIEFIEDSLITRINLILKDEKDTTARLRLIVLLLLGFGERNPGLTRILTGHALMFEQDRLQGRINQLFERIEAQLRQVLREKRMREGEGYTTDETLLASQILAFCEGMLSRFVRSEFKYRPTDDFDARWPLIAAQLQ
notes: SlmA, E. coli; also called SlmA-WT; His tagged SlmA; source: E. coli JS238/pQE80-slmA, purified (Ni-NTA)
With B1, the binding result with FtsZ-D86N and with FtsZ-K190V was “binds” in each case.

(Values after article PMC4117426, “SlmA Antagonism of FtsZ Assembly Employs a Two-pronged Mechanism like MinCD” (PLoS Genetics, 2014).)
